Assay [1] concerns the target Transduced TCR: None.
In assay [2] the target is DR1-restricted TCR HA1.7.
In assay [3] the target is memory CD4+ T cells from DR1+ donors, unstimulated (a small subset; their TCRs).
For assay [4] the target is unchanged. The source holds these as a separate data set.
The target is the same in assay [5]. The source holds these as a separate data set.
Assay [6] shares this target. The source holds these as a separate data set.
In assay [7] the target is DR1-restricted TCR HA1.7. The source holds these as a separate data set.
For assay [8], the target named is Transduced TCR: None. The source holds these as a separate data set.
Assay [9] has as its target DR1-restricted TCR HA1.7. This is another data set of the same source.
Assay [10] concerns the target DR1-restricted TCR HA1.7. Put plainly: flow cytometry, TCR-transduced primary T cells. For orientation: A flow cytometer gives signals particle by particle.
For assay [11], the target named is Transduced TCR: None. This is another data set of the same source.
Assay [12] deals with DR1-restricted TCR HA1.7. This is another data set of the same source.
Assay [13] concerns the target memory CD4+ T cells from DR1+ donors, unstimulated (a small subset; their TCRs). The source holds these as a separate data set.
Assay [14] shares this target. This is another data set of the same source.
For assay [15] the target is unchanged. The source holds these as a separate data set.
Assay [16] shares this target. This is another data set of the same source.
Assay [17] shares this target. This is another data set of the same source.
The target of assay [18] is Transduced TCR: None. This is another data set of the same source.

Like-named read-outs stand apart in the source and are kept apart here.

Take “DR1^L114W/V143M dimer loaded with Flu-HA306-318 (peptide-MHC)”: the figures for the percent multimer-positive CD4+ cells (number at the gate) with Transduced TCR: None [1] and in the assay with DR1-restricted TCR HA1.7 [2] were 0% and 1.5%, respectively.
With “DR1^L114W/V143M+2reps dimer loaded with Flu-HA117-136 (peptide-MHC)”, the events in the dimer+ CD4+ gate came out at 10 evts in assay [3] and 74 evts in assay [4].
On to “DR1^L114W/V143M+2reps dimer loaded with Flu-HA306-318 (peptide-MHC)”, for which the events in the dimer+ CD4+ gate in [5] came out at 18 evts; in [6], 53 evts. In addition, the percent multimer-positive CD4+ cells (number at the gate) with DR1-restricted TCR HA1.7 [7] was 48.9%; with Transduced TCR: None [8], 0%; with DR1-restricted TCR HA1.7 [9], 53%. The % dimer+ CD4+ cells with DR1-restricted TCR HA1.7 [10] stood at 9.1%.
As for “DR1^L114W/V143M+6reps dimer loaded with Flu-HA306-318 (peptide-MHC)”, the results for the percent multimer-positive CD4+ cells (number at the gate) in the assay with Transduced TCR: None [11] and with DR1-restricted TCR HA1.7 [12] were 0.1% and 48.2%, respectively.
Regarding “Flu-HA5-24, DR1^L114W/V143M+2reps dimer (PE) (peptide-MHC)”, the events in the dimer+ CD4+ gate turned out to be 1 evts in assay [13] and 2 evts in [14].
“Flu-HA232-251, DR1^L114W/V143M+2reps dimer (PE) (peptide-MHC)” came in with an events in the dimer+ CD4+ gate in [15] of 0 evts.
With “Flu-HA268-287, DR1^L114W/V143M+2reps dimer (PE) (peptide-MHC)”, the events in the dimer+ CD4+ gate in assay [16] worked out at 2 evts; in [17], 0 evts.
For “wild-type DR1 dimer loaded with Flu-HA306-318 (from UniProt P01911 30-227) (peptide-MHC)”, in the assay with Transduced TCR: None [18], the percent multimer-positive CD4+ cells (number at the gate) is 0.1%.

These data come from patent US20220291215A1.
